The values that follow come from article PMC7503162.

The target in test [1] is Low-density lipoprotein receptor-related protein 1 (LRP1), purified from human placenta (human (purified from human placenta)) (UniProt Q07954). The test can be described thus: SPR. Background: SPR reads the build-up and loss of mass on a sensor chip optically.
In another test the target is LRP1 (Homo sapiens) (UniProt Q07954). The following applies: cited from earlier work.
Test [2] has as its target Recombinant human LRP1 cluster III Fc chimera protein (human). As to the kind of experiment: SPR.
Test [3] addresses Recombinant human LRP1 cluster IV Fc chimera protein (human). The test can be described thus: SPR.
In test [4] the target is Recombinant human LRP1 cluster II Fc chimera protein (human). The test can be described thus: SPR.

Sequence of Low-density lipoprotein receptor-related protein 1 (LRP1), purified from human placenta (human (purified from human placenta)) (Q07954 20-4544): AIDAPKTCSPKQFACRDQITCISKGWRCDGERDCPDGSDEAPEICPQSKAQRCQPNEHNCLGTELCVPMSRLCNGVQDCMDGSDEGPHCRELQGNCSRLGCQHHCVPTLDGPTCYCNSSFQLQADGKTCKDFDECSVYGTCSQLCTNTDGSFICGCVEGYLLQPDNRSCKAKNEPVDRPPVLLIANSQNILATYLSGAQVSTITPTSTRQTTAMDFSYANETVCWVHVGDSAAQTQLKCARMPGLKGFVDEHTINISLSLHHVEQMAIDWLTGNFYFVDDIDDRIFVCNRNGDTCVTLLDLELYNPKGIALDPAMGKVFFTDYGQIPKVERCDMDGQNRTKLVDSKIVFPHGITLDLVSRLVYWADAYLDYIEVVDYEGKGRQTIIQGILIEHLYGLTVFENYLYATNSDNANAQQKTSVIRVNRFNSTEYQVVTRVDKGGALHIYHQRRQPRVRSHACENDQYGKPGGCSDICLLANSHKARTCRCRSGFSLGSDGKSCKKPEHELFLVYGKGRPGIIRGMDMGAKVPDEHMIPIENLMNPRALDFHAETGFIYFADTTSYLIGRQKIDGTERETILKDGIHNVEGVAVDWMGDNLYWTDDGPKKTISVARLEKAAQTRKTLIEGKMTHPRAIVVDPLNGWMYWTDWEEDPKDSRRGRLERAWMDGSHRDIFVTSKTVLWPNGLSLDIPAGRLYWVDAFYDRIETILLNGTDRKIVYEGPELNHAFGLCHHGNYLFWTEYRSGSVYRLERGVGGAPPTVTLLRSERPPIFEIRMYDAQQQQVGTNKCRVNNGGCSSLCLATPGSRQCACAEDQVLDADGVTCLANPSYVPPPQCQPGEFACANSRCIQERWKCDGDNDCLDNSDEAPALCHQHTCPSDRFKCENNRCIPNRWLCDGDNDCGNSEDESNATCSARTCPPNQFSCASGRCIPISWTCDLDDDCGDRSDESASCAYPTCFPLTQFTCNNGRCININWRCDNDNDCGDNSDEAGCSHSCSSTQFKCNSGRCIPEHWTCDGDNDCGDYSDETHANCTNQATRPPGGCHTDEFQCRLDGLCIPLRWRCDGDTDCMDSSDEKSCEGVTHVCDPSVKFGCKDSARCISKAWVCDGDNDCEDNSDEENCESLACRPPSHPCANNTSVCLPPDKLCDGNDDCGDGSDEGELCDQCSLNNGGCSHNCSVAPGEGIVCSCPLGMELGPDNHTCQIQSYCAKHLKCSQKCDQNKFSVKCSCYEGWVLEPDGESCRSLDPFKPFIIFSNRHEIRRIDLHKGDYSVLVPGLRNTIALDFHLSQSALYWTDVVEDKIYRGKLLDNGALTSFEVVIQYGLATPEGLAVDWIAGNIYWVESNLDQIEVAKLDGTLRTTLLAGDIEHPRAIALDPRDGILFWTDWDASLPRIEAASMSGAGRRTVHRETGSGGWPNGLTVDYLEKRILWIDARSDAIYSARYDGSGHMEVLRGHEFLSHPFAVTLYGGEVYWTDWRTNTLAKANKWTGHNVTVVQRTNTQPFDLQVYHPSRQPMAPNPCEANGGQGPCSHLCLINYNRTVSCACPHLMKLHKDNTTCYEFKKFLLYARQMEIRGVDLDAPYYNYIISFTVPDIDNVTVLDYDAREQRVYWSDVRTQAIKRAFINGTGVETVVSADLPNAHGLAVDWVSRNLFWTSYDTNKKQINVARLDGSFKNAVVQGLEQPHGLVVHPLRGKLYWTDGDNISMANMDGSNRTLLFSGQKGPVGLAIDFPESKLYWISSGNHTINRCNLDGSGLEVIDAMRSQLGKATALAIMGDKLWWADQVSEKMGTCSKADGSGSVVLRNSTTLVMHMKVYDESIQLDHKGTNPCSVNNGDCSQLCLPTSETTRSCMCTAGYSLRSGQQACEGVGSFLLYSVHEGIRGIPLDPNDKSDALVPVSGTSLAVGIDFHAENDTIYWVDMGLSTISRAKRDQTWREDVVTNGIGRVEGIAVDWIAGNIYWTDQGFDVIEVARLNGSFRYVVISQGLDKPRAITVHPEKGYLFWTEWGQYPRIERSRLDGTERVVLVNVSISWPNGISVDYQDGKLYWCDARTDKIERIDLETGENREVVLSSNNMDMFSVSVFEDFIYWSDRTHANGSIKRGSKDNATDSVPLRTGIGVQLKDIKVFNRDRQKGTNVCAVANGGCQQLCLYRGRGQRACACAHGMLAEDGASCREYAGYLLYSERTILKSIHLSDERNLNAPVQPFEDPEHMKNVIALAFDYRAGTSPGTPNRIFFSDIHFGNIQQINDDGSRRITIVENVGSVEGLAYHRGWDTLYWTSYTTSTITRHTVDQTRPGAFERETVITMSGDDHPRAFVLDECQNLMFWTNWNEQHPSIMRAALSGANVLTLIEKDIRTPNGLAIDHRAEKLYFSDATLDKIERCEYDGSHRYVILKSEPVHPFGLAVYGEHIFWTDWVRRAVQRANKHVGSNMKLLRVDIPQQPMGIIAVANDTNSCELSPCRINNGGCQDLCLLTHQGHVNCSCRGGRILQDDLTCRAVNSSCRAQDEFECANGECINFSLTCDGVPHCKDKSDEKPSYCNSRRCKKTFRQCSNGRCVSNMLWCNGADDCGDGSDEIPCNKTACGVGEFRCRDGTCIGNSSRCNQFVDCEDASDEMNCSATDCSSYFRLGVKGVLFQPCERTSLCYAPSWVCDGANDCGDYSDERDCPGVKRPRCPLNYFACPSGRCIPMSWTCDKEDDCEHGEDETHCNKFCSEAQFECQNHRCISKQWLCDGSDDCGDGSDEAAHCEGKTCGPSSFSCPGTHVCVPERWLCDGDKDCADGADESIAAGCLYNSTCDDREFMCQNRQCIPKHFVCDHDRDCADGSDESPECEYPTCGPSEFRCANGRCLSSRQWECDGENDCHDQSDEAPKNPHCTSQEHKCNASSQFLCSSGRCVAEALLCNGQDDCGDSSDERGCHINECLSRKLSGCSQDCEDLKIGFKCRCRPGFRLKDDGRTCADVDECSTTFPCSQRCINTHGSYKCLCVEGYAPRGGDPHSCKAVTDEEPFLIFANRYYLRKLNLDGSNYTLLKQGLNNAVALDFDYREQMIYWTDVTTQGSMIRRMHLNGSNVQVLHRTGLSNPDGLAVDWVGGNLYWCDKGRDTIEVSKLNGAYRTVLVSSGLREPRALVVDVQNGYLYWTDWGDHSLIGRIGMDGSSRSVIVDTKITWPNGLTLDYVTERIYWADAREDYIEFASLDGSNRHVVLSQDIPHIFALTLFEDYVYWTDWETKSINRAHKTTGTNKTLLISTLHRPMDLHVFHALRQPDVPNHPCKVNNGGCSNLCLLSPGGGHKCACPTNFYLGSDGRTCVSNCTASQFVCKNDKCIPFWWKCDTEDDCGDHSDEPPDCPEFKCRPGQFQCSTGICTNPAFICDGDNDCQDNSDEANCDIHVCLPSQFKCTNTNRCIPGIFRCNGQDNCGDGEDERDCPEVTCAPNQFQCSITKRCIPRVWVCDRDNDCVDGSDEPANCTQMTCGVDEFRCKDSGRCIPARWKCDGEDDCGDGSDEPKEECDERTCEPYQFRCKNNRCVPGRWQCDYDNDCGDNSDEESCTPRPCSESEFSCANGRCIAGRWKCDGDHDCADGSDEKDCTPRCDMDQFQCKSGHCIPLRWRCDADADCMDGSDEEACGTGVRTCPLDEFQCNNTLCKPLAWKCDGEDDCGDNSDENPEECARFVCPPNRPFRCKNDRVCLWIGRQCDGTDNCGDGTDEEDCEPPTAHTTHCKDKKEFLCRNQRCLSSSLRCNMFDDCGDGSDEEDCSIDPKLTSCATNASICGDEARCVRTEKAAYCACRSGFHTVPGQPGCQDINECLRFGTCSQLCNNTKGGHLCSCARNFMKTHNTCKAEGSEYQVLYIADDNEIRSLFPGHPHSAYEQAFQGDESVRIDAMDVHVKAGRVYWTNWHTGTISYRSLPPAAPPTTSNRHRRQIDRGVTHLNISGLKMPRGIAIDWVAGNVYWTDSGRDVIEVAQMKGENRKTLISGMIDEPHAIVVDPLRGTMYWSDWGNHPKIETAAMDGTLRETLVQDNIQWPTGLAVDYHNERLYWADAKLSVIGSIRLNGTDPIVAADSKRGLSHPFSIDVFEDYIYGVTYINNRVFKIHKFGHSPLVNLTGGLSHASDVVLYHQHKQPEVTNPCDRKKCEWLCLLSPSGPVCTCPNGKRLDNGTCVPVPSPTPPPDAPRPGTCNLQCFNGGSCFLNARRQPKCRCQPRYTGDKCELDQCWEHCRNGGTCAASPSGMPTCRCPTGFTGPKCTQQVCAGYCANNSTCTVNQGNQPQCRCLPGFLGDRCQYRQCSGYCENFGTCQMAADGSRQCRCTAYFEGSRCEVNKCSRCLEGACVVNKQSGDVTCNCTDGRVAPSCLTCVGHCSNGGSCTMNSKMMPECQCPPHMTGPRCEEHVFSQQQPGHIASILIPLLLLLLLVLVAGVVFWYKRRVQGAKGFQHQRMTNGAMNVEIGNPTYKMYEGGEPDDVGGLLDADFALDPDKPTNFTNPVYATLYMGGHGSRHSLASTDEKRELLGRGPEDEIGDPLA
Sequence of Tissue inhibitor of metalloproteases 1 (TIMP-1) (P01033 24-207): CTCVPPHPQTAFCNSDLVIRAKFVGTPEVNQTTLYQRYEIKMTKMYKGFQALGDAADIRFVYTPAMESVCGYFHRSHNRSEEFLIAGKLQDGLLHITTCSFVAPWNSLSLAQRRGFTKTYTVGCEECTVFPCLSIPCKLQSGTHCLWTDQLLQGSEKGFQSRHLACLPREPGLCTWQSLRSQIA
Sequence of LRP1 (Homo sapiens) (Q07954 20-4544): as the sequence (Q07954 20-4544) above

In test [1], Active MMP-1 (enzyme) came in with a Kd of 25 nM; a ka2 (bivalent model, second step) of 0.0084 s⁻¹; a kd1 (bivalent model, first step) of 0.017 s⁻¹; a kd2 (bivalent model, second step) of 0.0015 s⁻¹.
For “MMP-1/TIMP-3 complex (from UniProt P03956)”, the Kd with LRP1 (Homo sapiens) was 5 nM.
As for “MMP-1/TIMP-1 complex (from UniProt P01033 24-207)”, in test [2], the Kd came out at 12 nM; the ka1 (bivalent model, first step) came out at 200000 M⁻¹ s⁻¹; the ka2 (bivalent model, second step) amounted to 0.019 s⁻¹; the kd1 (bivalent model, first step) was 0.079 s⁻¹. In addition, the kd2 (bivalent model, second step) in test [2] is 0.00062 s⁻¹. In test [3], the Kd stood at 32 nM; the ka1 (bivalent model, first step) was 99000 M⁻¹ s⁻¹; the ka2 (bivalent model, second step) turned out to be 0.02 s⁻¹; the kd1 (bivalent model, first step) is 0.064 s⁻¹. The kd2 (bivalent model, second step) in test [3] came to 0.001 s⁻¹. In test [1], this substance gave a ka1 (bivalent model, first step) of 93000 M⁻¹ s⁻¹; a ka2 (bivalent model, second step) of 0.012 s⁻¹; a kd1 (bivalent model, first step) of 0.026 s⁻¹; a kd2 (bivalent model, second step) of 2.7e-05 s⁻¹. In test [4], the Kd came to 27 nM; the ka1 (bivalent model, first step) amounted to 120000 M⁻¹ s⁻¹; the ka2 (bivalent model, second step) was determined as 0.02 s⁻¹; the kd1 (bivalent model, first step) was determined as 0.077 s⁻¹. Also, in test [4], the kd2 (bivalent model, second step) amounted to 0.00085 s⁻¹.
Turning to “Human His-tagged proMMP-1 (from UniProt P03956 20-469) (enzyme)”, the Kd in test [2] is 34 nM; in test [3], 358 nM; in test [4], 169 nM.
With “Tissue inhibitor of metalloproteases 1 (TIMP-1) (from UniProt P01033 24-207) (natural protein)”, the Kd in test [2] was 39 nM; in test [3], 391 nM; in test [4], 129 nM.

For orientation: Kd means the free concentration of one partner at which half of the binding sites on the other are occupied at equilibrium, for simple one-to-one binding.
